Data on 1 molecule can be found in US20240301086A1 (APTEVO RESEARCH AND DEVELOPMENT, published 2024).

The target in experiment [1] is T1, Full-length Human PSMA (TSC435), on cells (human, UniProt Q04609 1-750).
T1 construct: also called CHOK1SV/huPSMA; PSMA on C4-2B, 22RV1, LNCaP, MDA-PCa-2b cells
As to the kind of experiment: flow cytometry on C4-2B cells, PE goat anti-human IgG Fc secondary, MFI (median). Here is the method: (§1) Constructs were initially tested in CD3ε and PSMA binding assays on Jurkat and C4-2B cells. Cells were labelled at approximately 100,000 cells per well, in 96-well plates, with serial dilutions of bispecific constructs ranging in concentration from of 0.1 to 300 nM, for 30 min on ice. Primary label was followed by washes and incubation with PE-labeled minimum cross species reactive secondary antibody, goat anti-human IgG Fcγ, F(ab′)2 (Jackson Laboratory) for 30 minutes on ice. Washes and incubation were done in staining buffer (PBS with 0.2% BSA and 2 mM EDTA). Cells were collected using an BD™ LSRII or a BD FACSymphony™ flow cytometer (BD Biosciences) and analyzed by FlowJo flow cytometry analysis software. Median fluorescence intensity (MFI) of bound molecules on cells was determined after exclusion of doublets. Results were plotted and nonlinear regression analysis to determine EC50 values was performed using GraphPad Prism 7© graphing and statistics software.

Experiment [2] has as its target T2, human CD3ε in the TCR/CD3 complex on Jurkat cells (human, UniProt P07766 23-207).
T2 construct: whole, on cells; On the cells it stands in the whole TCR/CD3 complex; also called CD3 (+) cells; CD3-expressing Jurkat cells
As to the kind of experiment: flow cytometry on Jurkat cells, PE goat anti-human IgG Fc secondary, MFI (median). The procedure:
as §1

Experiment [3] deals with T1, Full-length Human PSMA (TSC435), on …. The experiment is described as follows: flow cytometry on C4-2B cells, PE goat anti-human IgG Fc secondary, MFI (median). Here is the method:
as §1
This is another data set of the same source.

Experiment [4] has as its target T2, human CD3ε in the TCR/CD3 complex on …. The experiment is described as follows: flow cytometry on Jurkat cells, PE goat anti-human IgG Fc secondary, MFI (median). The procedure:
as §1
This is another data set of the same source.

The target in experiment [5] is T3, Full-length cynomolgus monkey PSMA (TSC308), on cells (cynomolgus monkey, UniProt Q04609 1-750 (human entry)).
T3 construct: also called cyno PSMA; CHOK1SV/cynoPSMA
T3 chain: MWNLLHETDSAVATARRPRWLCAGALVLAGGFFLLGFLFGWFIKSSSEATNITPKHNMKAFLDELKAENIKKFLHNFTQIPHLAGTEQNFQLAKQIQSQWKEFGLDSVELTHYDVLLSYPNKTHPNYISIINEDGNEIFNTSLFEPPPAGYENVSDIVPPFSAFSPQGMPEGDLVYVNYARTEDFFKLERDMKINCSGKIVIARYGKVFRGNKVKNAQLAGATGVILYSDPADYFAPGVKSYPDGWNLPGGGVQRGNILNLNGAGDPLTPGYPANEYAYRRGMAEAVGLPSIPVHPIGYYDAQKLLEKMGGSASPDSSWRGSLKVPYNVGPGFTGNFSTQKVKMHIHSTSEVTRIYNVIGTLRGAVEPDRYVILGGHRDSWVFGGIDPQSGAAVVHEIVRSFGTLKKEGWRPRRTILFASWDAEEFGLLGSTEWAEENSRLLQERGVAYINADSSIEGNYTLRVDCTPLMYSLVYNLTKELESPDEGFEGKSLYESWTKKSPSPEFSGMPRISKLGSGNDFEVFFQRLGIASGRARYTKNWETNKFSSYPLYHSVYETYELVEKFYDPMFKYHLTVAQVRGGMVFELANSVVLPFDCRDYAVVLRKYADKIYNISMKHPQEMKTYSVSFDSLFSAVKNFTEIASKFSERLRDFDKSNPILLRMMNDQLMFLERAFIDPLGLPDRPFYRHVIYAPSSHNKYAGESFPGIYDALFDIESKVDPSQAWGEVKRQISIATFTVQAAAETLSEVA
As to the kind of experiment: flow cytometry on CHO-CynoPSMA cells, Median (PE); drawn table row 'Cyno PSMA binding affinity'.

Experiment [6] deals with human Fcγ receptor I (human, UniProt P12314 16-288). As to the kind of experiment: SPR (Biacore T200), construct amine-coupled, Fcγ receptor as analyte. Here is the method:
(§2) The Fc region incorporated into anti-PSMA bispecific constructs contained mutations intended to reduce or abolish binding to common human and cynomolgus Fc gamma receptors. SPR experiments were conducted at 25° C. in HBS-EP+ with 0.2% BSA buffer on a Biacore T200 system to evaluate the impact of these mutations on binding. For these experiments, three flow cells of a CM5 sensor chip were immobilized with anti-PSMA bispecifics by standard amine coupling to a response level of ˜2000 RU. A blank immobilization was performed on flow cell #1 for purposes of background signal subtraction. Both human and cynomolgus monkey Fcγ receptors (purchased from R&D Systems) were diluted in HBS-EP+ with 0.2% BSA to 4-6 μM and then flowed as analytes at 30 μL/min for 120 seconds followed by a 240 second dissociation step. No regeneration step was required. Blank-subtracted sensorgrams were visually inspected for binding to each of the Fcγ receptor proteins. […] Attenuated binding to Fcγ receptors IIA (both polymorphic variants) and IIB/C was observed. PSMA01107 and PSMA01108 share the same Fc amino acid sequence and therefore equivalent Fcγ receptor binding behavior was expected.

The target of experiment [7] is human Fcγ receptor IIIA, F176 variant (human, UniProt P08637 17-208). Described as above. The procedure: as §2
human Fcγ receptor IIIA, F176 variant, sequence (P08637 17-208, change not shown): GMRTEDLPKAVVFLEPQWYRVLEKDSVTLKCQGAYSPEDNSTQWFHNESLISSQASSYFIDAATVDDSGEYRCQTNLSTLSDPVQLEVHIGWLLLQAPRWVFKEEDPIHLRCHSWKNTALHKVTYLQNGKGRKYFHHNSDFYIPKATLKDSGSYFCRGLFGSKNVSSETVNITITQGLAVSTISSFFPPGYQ
Experiment [8] addresses human Fcγ receptor IIIB (human, UniProt O75015 17-200). The description is as above. The procedure:
as §2

Experiment [9] has as its target human Fcγ receptor IIIA, V176 variant (human, UniProt P08637 17-208). Described as above. Here is the method: as §2
Experiment [10] deals with T2, human CD3ε in the TCR/CD3 complex on …. As to the kind of experiment: flow cytometry, drawn table 'On- Cell Binding Parameters', row 'Human CD3 binding affinity'. Here is the method: as §1
The target of experiment [11] is T1, Full-length Human PSMA (TSC435), on …. The experiment is described as follows: flow cytometry, drawn table 'On- Cell Binding Parameters', row 'Human PSMA binding affinity'.
For experiment [12], the target named is T4, cynomolgus Fcγ receptor III (cynomolgus monkey, UniProt Q8SPW2 17-208).
T4 construct: Called recombinant, soluble; also called Cyno RIII
T4 sequence (Q8SPW2 17-208): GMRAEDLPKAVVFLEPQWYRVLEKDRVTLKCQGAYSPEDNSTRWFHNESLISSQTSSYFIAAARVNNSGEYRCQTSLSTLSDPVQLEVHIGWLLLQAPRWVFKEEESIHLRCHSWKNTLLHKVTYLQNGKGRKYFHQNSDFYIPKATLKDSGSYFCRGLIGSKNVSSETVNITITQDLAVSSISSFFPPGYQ
The experiment is described as follows: SPR (Biacore T200), construct amine-coupled, soluble cyno Fcγ receptor as analyte. The procedure:
as §2

Bounds are passed on as bounds.

T2 sequence (P07766 23-207, one chain of several): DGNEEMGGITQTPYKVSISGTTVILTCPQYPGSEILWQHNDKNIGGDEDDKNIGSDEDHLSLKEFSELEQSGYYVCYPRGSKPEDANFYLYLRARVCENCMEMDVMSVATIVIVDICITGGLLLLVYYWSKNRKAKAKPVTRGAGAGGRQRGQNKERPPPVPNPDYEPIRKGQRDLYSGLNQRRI
human Fcγ receptor IIIB, sequence (O75015 17-200): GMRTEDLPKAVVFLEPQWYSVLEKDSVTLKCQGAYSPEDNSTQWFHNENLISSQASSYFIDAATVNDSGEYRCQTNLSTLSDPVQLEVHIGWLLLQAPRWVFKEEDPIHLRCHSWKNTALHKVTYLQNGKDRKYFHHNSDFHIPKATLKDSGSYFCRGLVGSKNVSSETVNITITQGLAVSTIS
human Fcγ receptor I, sequence (P12314 16-288): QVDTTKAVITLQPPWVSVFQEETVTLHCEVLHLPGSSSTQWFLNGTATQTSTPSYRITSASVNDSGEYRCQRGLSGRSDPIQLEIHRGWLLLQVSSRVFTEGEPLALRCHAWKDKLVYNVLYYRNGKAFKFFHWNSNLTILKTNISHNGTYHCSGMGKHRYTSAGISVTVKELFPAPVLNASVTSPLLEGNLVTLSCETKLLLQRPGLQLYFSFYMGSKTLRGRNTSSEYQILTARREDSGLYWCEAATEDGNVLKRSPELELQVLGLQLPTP
human Fcγ receptor IIIA, V176 variant, sequence (P08637 other isoform, or with tags, fused parts or gaps mutant): as the sequence (P08637 17-208, change not shown) above, with F160V counted along it

B1: PSMA01108 Anti-PSMA scFv x Fc x linker x Anti CD3 scFv; Anti PSMA scFv x Fc (bispecific antibody)
chain 1: QVQLVQSGAEVKKPGASVKVSCKASGYTFTDYYMHWVRQAPGQGLEWMGYFNPYNDYTRYAQKFQGRVTMTRDTSTSTVYMELSSLRSEDTAVYYCARSDGYYDAMDYWGQGTTVTVSSGGGGSGGGGSGGGGSGGGGSDIQMTQSPSSLSASVGDRVTITCRASKSISKYLAWYQQKPGKAPKLLIHSGSSLESGVPSRFSGSGSGTEFTLTISSLQPDDFATYYCQQHIEYPWTFGQGTKVEIKEPKSSDKTHTCPPCPAPPAAAPSVFLFPPKPKDTLMISRTPEVTCVVVDVSHEDPEVKFNWYVDGVEVHNAKTKPREEQYNSTYRVVSVLTVLHQDWLNGKEYKCAVSNKALPAPIEKTISKAKGQPREPQVYTLPPSRDELTKNQVSLWCLVKGFYPSDIAVEWESNGQPENNYKTTPPVLDSDGSFFLYSKLTVDKSRWQQGNVFSCSVMHEALHNHYTQKSLSLSPGGGGSPSDIQMTQSPSSLSASVGDRVTITCRASSSVSYMNWYQQKPGKAPKRWIYDSSKLASGVPSRFSGSGSGTDFTLTISSLQPEDFATYYCQQWSRNPPTFGQGTKVEIKGGGGSGGGGSGGGGSGGGGSQVQLVQSGAEVKKPGASVKVSCKASGYTFTRSTMHWVRQAPGQGLEWIGYINPSSAYTNYAQKFQGRVTLTADKSTSTAYMELSSLRSEDTAVYYCASPQVHYDYNGFPYWGQGTLVTVSS
chain 2: QVQLVQSGAEVKKPGASVKVSCKASGYTFTDYYMHWVRQAPGQGLEWMGYFNPYNDYTRYAQKFQGRVTMTRDTSTSTVYMELSSLRSEDTAVYYCARSDGYYDAMDYWGQGTTVTVSSGGGGSGGGGSGGGGSGGGGSDIQMTQSPSSLSASVGDRVTITCRASKSISKYLAWYQQKPGKAPKLLIHSGSSLESGVPSRFSGSGSGTEFTLTISSLQPDDFATYYCQQHIEYPWTFGQGTKVEIKEPKSSDKTHTCPPCPAPPAAAPSVFLFPPKPKDTLMISRTPEVTCVVVDVSHEDPEVKFNWYVDGVEVHNAKTKPREEQYNSTYRVVSVLTVLHQDWLNGKEYKCAVSNKALPAPIEKTISKAKGQPREPQVYTLPPSRDELTKNQVSLSCAVKGFYPSDIAVEWESNGQPENNYKTTPPVLDSDGSFFLVSKLTVDKSRWQQGNVFSCSVMHEALHNHYTQKSLSLSPG
notes: also called PSMA1108; PSAM01108
On to B1, for which the EC50 in [1] was 1 nM; in experiment [2] it was over 200 nM; in experiment [3], 1 nM; in experiment [4], over 210 nM; in experiment [5], 4 nM; in [10], over 200 nM. Moreover, in experiment [11], the EC50 turned out to be 1 nM. In addition, the Max in experiment [5] stood at 19500; in [10], 409; in experiment [11], 2500. Also, the binding result in experiment [6], in experiment [7], in experiment [8], in [9] and in [12] was “no binding (tested: 4-6 µM)” in each case.
